US8329637B2, “Method for the treatment of automimmune diseases comprising administering rapamycin and IL-10” (priority 2002, dated 2012)

B1: IL-10: Human IL-10 (BD Biosciences), cytokine, 0.05 mg/Kg IP twice a day (protein, UniProt P22301 19-178, looked up)
Interleukin-10: SPGQGTQSENSCTHFPGNLPNMLRDLRDAFSRVKTFFQMKDQLDNLLLKESLLEDFKGYLGCQALSEMIQFYLEEVMPQAENQDPDIKAHVNSLGENLKTLRLRLRRCHRFLPCENKSKAVEQVKNAFNKLQEKGIYKAMSEFDIFINYIEAYMTMKIRN

Assays:
NOD mice = experiment: Diabetes inhibition study in NOD mice; assay type: in vivo, mouse
Description: (B) Pre-diabetic mice were treated daily starting from 11 weeks of age with either rapamycin, rapamycin+IL-10 or IL-10 alone.
NOD mice were treated from 11 weeks to 31 weeks of age with IL-10 (IL-10, n=7 mice), or rapamycin (RAPA, n=13 mice), or rapamycin+IL-10 (RAPA/IL-10 n=16 mice), or vehicle (CNTR, n=22 mice). Diabetes incidence, monitored by glycemia levels, was stable at least up to 60 weeks of age. Administration of rapamycin alone reduced diabetes incidence from 95% to 46%.
In our proposed protocol, down-regulation of inflammation should be achieved by IL-10, and blockade of T effector cell expansion should be achieved by rapamycin. Neither IL-10 nor rapamycin prevent T cell priming and therefore they should allow induction of antigen-specific T regulatory cells, and as described below, IL-10 should promote the induction and expansion of Tr1 cells. We investigated the effect of rapamycin alone or in combination with IL-10 in treating autoimmunity in the NOD mouse a model for type I diabetes. […] Inhibition of type I diabetes was evaluated by treating NOD mice daily starting at 11 weeks of age (i.e. pre-diabetic mice with periinsultis) with rapamycin, rapamycin+IL-10, or IL-10 alone. […]
Mice. […] Glucose level in the tail venous blood was quantified using Glucometer Elite system (Bayer, Wuppertal, Germany). […]
Diabetes inhibition study. […] Diabetes incidence was monitored by blood glucose levels.

[1] = tested on: Tr1 and CD4+CD25+ T cells; experiment: Tr cell content (cytokine profile by CBA, CD4+CD25+ by FACS) in spleen, PLN and IIC of treated NOD mice; assay type: cell-based, mouse; conditions: islet infiltrating cells (FIG. 11)
Description: Cytokine production by CD4^+ T cells (left panels) and percentages of CD4^+CD25^+ T cells (right panels) were evaluated by CBA and FACS analysis respectively, in the spleen (A), pancreatic lymph nodes (PLN) (B), and islet infiltrating cells (IIC) (C) of untreated-diabetic NOD mice (gray bars), rapamycin-treated mice (white bars), or rapamycin+IL-10-treated mice (black bars). […] The percentages of CD4^+CD25^+ T cells were higher in the spleen, PLN, and IIC of both mice treated with rapamycin alone or rapamycin+IL-10 (black bars). Therefore, in rapamycin+IL-10 treated mice, Tr1 cells are present in the spleen and CD4^+CD25^+ Tr cells are present in the spleen, lymph nodes, and pancreas.
The mechanisms underlying long-term tolerance were analysed in tolerant mice of 50 weeks of age or older. […] However, the proportion of splenic CD4^+ T cells producing IL-4 was the same in both untreated and treated mice. […]
Flow cytometry. Cells were stained with the indicated Abs (all from BD), and were analyzed with a FACScan flow cytometer equipped with CellQuest software (BD).
Cytokine measurement. Cytokines present in the collected supernatants were quantified by sandwich ELISA or flow cytometry based assay (CBA), using standard commercially available kits (BD). The percentage of cells producing specific cytokines was measured by intracellular staining. […]

[2] = tested on: allogeneic C57BL/6 β-islets transplanted in diabetic Balb/c mice; experiment: Allogeneic β-islet transplantation (C57BL/6 into Balb/c), graft survival monitored by glycemia; assay type: in vivo, mouse
Description: Balb/c mice that had been rendered diabetic by streptozotocin injection were transplanted under the kidney capsule with purified allogeneic C57BL/6 β-islets. Mice were not treated (control, n=13 mice), or treated with rapamycin+antiTac+IL-10 (IL-10 protocol, n=16 mice) or rapamycin+antiTac+FK506 (Edmonton protocol, n=4 mice) for 30 days. Graft survival was monitored by glycemia levels. A graft was considered rejected when glycemia was higher than 250 mg/dl.
Balb/c mice that had been rendered diabetic by streptozotocin injection were transplanted under the kidney capsule with purified allogeneic C57BL/6 β-islets. Mice were not treated (control, n=8 mice), or treated with rapamycin in combination with IL-10 (rapa+IL10, n=8 mice) or IL10 only (n=4 mice). Graft survival was monitored by glycemia levels.
Allogeneic β-islet transplantation. A model of fully mismatched murine islet allotransplantation (C57BL/6 into Balb/C) was used.
Balb/c mice that had been rendered diabetic by streptozotocin injection were transplanted under the kidney capsule with purified allogeneic C57BL/6 β-islets.
Treatment of transplanted mice. […] Diabetes incidence was monitored by blood glucose levels.

Molecule | diabetes incidence (NOD mice; NOD mice treated from 11 to 31 weeks of age, vehicle 95% (FIG. 10A)) [%] | CD4+CD25+ T cells as share of CD4+ T cells isolated from IIC [1] [%] | effect on the development of diabetes (NOD mice; NOD mice treated from 11 to 31 weeks of age (FIG. 10A)) | long-term graft survival ([2]; Balb/c mice treated for 30 days, without antiTac (FIG. 2)) [%] | prevention of graft rejection ([2]; Balb/c mice, FIG. 2)
CO[C@H]1C[C@@H]2CC[C@@H](C)[C@@](O)(O2)C(=O)C(=O)N2CCCC[C@H]2C(=O)O[C@H]([C@H](C)C[C@@H]2CC[C@@H](O)[C@H](OC)C2)CC(=O)[C@H](C)/C=C(\C)[C@@H](O)[C@@H](OC)C(=O)[C@H](C)C[C@H](C)/C=C/C=C/C=C/1C [rapamycin] | 46 | ~100 | – | – | –
B1 | – | – | no significant effect | 30 | not efficient in preventing graft rejection
